Reference: article PMC10902354, “Deficiency in PHD2-mediated hydroxylation of HIF2α underlies Pacak-Zhuang syndrome” (Communications Biology, 2024)

B1: HIF2α-CODD G537R peptide (peptide, UniProt Q99814 523-542, looked up)
peptide: Ac-ELDLETLAPYIPMDREDFQL-NH2
notes: HIF2α (EPAS1) CODD peptide, human, as m3 with the disease mutation G537R (Class 2); also called HIF2α G537R; source: synthetic peptide (Genscript, ≥95% purity)
B2: HIF2α-CODD P534L peptide (peptide, UniProt Q99814 523-542, looked up)
peptide: Ac-ELDLETLAPYILMDGEDFQL-NH2
notes: HIF2α (EPAS1) CODD peptide, human, as m3 with the disease mutation P534L (Class 2); also called HIF2α P534L; source: synthetic peptide (Genscript, ≥95% purity)
B3: HIF2α-CODD M535T peptide (peptide, UniProt Q99814 523-542, looked up)
peptide: Ac-ELDLETLAPYIPTDGEDFQL-NH2
notes: HIF2α (EPAS1) CODD peptide, human, as m3 with the disease mutation M535T (Class 2); also called HIF2α M535T; source: synthetic peptide (Genscript, ≥95% purity)
B4: HIF2α-CODD G537W peptide (peptide, UniProt Q99814 523-542, looked up)
peptide: Ac-ELDLETLAPYIPMDWEDFQL-NH2
notes: HIF2α (EPAS1) CODD peptide, human, as m3 with the disease mutation G537W (Class 2); also called HIF2α G537W; source: synthetic peptide (Genscript, ≥95% purity)
B5: HIF2α-CODD T528M peptide (peptide, UniProt Q99814 523-542, looked up)
peptide: Ac-ELDLEMLAPYIPMDGEDFQL-NH2
notes: HIF2α (EPAS1) CODD peptide, human, as m3 with T528M; also called HIF2α T528M; source: synthetic peptide (Genscript, ≥95% purity)
B6: HIF2α-CODD M535I peptide (peptide, UniProt Q99814 523-542, looked up)
peptide: Ac-ELDLETLAPYIPIDGEDFQL-NH2
notes: HIF2α (EPAS1) CODD peptide, human, as m3 with the disease mutation M535I (Class 2); also called HIF2α M535I; source: synthetic peptide (Genscript, ≥95% purity)
B7: HIF2α-CODD P534R peptide (peptide, UniProt Q99814 523-542, looked up)
peptide: Ac-ELDLETLAPYIRMDGEDFQL-NH2
notes: HIF2α (EPAS1) CODD peptide, human, as m3 with the disease mutation P534R (Class 2); also called HIF2α P534R; source: synthetic peptide (Genscript, ≥95% purity)
B8: HIF2α-CODD D539N peptide (peptide, UniProt Q99814 523-542, looked up)
peptide: Ac-ELDLETLAPYIPMDGENFQL-NH2
notes: HIF2α (EPAS1) CODD peptide, human, as m3 with the disease mutation D539N (Class 1); also called HIF2α D539N; source: synthetic peptide (Genscript, ≥95% purity)
B9: HIF2α-CODD F540L peptide (peptide, UniProt Q99814 523-542, looked up)
peptide: Ac-ELDLETLAPYIPMDGEDLQL-NH2
notes: HIF2α (EPAS1) CODD peptide, human, as m3 with the disease mutation F540L (Class 2); also called HIF2α F540L; source: synthetic peptide (Genscript, ≥95% purity)
B10: HIF2α-CODD I533V peptide (peptide, UniProt Q99814 523-542, looked up)
peptide: Ac-ELDLETLAPYVPMDGEDFQL-NH2
notes: HIF2α (EPAS1) CODD peptide, human, as m3 with the disease mutation I533V (Class 2); also called HIF2α I533V; source: synthetic peptide (Genscript, ≥95% purity)
B11: HIF2α-CODD D539Y peptide (peptide, UniProt Q99814 523-542, looked up)
peptide: Ac-ELDLETLAPYIPMDGEYFQL-NH2
notes: HIF2α (EPAS1) CODD peptide, human, as m3 with the disease mutation D539Y (Class 1); also called HIF2α D539Y; source: synthetic peptide (Genscript, ≥95% purity)
B12: HIF2α-CODD ΔG537 peptide (peptide, UniProt Q99814 523-542, looked up)
peptide: Ac-ELDLETLAPYIPMDEDFQL-NH2
notes: HIF2α (EPAS1) CODD peptide, human, as m3 without G537; also called HIF2α ΔG537; source: synthetic peptide (Genscript, ≥95% purity)

Molecular target: T1, Alexa 647 labeled PHD2 (catalytic / prolyl-hydroxylase domain, residues 181-426) (human, UniProt Q9GZT9 181-426, Alexa Fluor 647 N-hydroxysuccinimide ester dye, 1-2 dye molecules per protein molecule)
T1 construct: PHD2, prolyl-hydroxylase domain (catalytic domain), residues 181-426, from pET-46-HIS6-PHD2; Same construct as m2, dye-labeled for MST; also called PHD2-647; source: E. coli BL21(DE3), purified (Ni-NTA, thrombin cleavage, Superdex 75), labeled with Alexa Fluor 647 NHS ester
T1 sequence (Q9GZT9 181-426): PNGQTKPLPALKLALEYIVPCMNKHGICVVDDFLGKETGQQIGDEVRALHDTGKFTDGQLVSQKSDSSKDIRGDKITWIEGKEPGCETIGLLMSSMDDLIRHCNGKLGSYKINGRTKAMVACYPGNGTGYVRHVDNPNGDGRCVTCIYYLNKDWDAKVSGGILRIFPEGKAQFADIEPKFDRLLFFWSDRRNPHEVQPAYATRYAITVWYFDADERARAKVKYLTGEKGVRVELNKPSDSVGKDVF
Test: MST; 25 nM Alexa 647 labeled PHD2, unlabeled peptide in 16 two-fold dilutions; room temperature; MST Buffer 50 mM Tris-HCl pH 7.5, 1 mM NOG, 10 µM FeSO4, 5 mg/ml BSA mixed 1:1 with peptide in 50 mM Tris-HCl pH 8.0; 1:1 Kd model; triplicate
Details: both partners purified

Binder	Kd [µM]
B1	175 ± 20
B2	221 ± 19
B3	203 ± 25
B4	83 ± 9
B5	23 ± 2
B6	154 ± 17
B7	153 ± 10
B8	760 ± 274
B9	229 ± 25
B10	167 ± 29
B11	381 ± 50
B12	13 ± 2
